Patent US8906356 (MIT, dated 2014)

T1: IL-2 receptor α subunit (IL-2Rα, CD25) on Kit225 cells (human, UniProt P01589 22-272)
T1 construct: whole, on cells; Kit225 cells express all three IL-2 receptor subunits, with IL-2Rα in ~10 fold excess; also called p55
T1 sequence (looked up): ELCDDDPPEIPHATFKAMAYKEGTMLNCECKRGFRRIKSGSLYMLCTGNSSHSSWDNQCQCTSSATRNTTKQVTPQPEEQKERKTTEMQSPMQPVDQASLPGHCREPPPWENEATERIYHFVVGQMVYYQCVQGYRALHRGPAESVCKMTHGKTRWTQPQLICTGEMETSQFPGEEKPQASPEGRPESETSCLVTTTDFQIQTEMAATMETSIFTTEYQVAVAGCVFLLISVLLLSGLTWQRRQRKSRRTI

T2: IL-2 receptor (IL-2Rα, IL-2Rβ and IL-2Rγ) on cells (human, UniProt P01589 22-272; P14784 27-551; P31785 23-369)
T2 sequence (looked up) 1: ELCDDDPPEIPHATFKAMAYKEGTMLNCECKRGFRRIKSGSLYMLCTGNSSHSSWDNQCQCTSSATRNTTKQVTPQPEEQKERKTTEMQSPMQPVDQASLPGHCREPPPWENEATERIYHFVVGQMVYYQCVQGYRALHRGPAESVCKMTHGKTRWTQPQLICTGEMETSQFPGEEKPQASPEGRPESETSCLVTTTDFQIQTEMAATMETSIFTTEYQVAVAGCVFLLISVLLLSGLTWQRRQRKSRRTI
T2 sequence (looked up) 2: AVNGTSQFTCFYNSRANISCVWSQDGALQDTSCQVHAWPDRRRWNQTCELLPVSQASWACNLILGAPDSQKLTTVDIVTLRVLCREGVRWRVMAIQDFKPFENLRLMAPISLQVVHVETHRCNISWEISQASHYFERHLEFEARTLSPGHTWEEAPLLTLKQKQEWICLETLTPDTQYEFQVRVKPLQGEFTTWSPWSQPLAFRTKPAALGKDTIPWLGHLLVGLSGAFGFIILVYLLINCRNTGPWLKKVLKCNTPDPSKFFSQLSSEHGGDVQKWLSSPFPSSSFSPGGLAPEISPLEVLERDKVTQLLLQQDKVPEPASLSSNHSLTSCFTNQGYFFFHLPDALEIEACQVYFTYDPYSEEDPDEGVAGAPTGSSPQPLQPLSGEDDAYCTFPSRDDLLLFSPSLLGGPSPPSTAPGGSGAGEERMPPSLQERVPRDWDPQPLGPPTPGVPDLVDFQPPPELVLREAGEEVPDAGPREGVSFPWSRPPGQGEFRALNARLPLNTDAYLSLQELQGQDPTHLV
T2 sequence (looked up) 3: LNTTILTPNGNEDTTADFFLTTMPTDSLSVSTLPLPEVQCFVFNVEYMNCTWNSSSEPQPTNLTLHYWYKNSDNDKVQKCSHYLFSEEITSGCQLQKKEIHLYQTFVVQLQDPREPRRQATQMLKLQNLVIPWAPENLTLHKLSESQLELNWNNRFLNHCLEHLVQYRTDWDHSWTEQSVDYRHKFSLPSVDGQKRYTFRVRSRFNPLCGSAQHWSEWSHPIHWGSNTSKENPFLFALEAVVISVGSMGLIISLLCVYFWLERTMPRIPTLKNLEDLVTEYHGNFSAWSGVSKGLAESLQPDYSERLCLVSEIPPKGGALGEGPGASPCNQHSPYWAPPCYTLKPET


Key:
[1] = target: T1, IL-2 receptor α subunit (IL-2Rα, CD25) …; test: cell surface titration on Kit225 cells, flow cytometry with anti-FLAG detection
Procedure: Determination of IL-2Rα binding affinities of IL-2 mutants. […] At low IL-2 mutant concentrations, the total volume was increased to maintain an excess number of IL-2 mutant molecules over the number of IL-2Rα. After incubation, cells were kept on ice and stained with mouse anti-FLAG monoclonal antibody M2 (Sigma Aldrich, St. Louis, Mo.), followed by an Alexa Fluor 488 conjugated goat anti-mouse antibody (Invitrogen, Carlsbad, Calif.), to detect cell-surface bound protein. The mean single-cell fluorescence was measured, and the dissociation constant (K_D) and the 95% confidence interval were determined as previously described, using the following equation: Fobs = cL_0/(K_D + L_0), where $Fobs$ is the background-corrected mean fluorescence, L_0 is the initial concentration of the protein being measured, and c is the proportionality constant.
The IL-2Rα binding affinity of the IL-2 mutants was measured in using Kit225 cells, a human T cell line that is dependent on IL-2 for growth. Kit225 constitutively expresses all three subunits of the IL-2 receptor, with IL-2Rα in ~10 fold excess. The IL-2Rα binding affinity was measured using cell surface titrations on Kit225.

[2] = target: T2, IL-2 receptor (IL-2Rα, IL-2Rβ and …); test: cell-based or functional assay
[3] = target: T1, IL-2 receptor α subunit (IL-2Rα, CD25) …; test: cell surface titration on Kit225 cells (method not restated for the double mutant)

Binder	Kd [1]	IC50 of inhibition of STAT5 phosphorylation in Kit225 cells with 25 pM wild type IL-2 [2]	Kd [3]
V91R (2-4 IL-2 with a V91R point mutation) (ligand) APTSSSTKKTQLQLEHLLLDLQMILNGISNHKNPRLARMLTFKFYMPEKATELKHLQCLEEELKPLEEALRLAPSKNFHLRPRDLISDVNRIVLELKGSETTFMCEYADETATIVEFLNRWITFCQSIISTLT	0.119 nM	2.4 nM	
2-4 IL-2 (engineered mutant of human IL-2 with high affinity for IL-2Rα) (ligand) APTSSSTKKTQLQLEHLLLDLQMILNGISNHKNPRLARMLTFKFYMPEKATELKHLQCLEEELKPLEEALRLAPSKNFHLRPRDLISDVNVIVLELKGSETTFMCEYADETATIVEFLNRWITFCQSIISTLT	0.199 nM		

Continued, values first:

Kd [1]	IC50 of inhibition of STAT5 phosphorylation in Kit225 cells with 25 pM wild type IL-2 [2]	Kd [3]	Binder
0.109 nM	1.9 nM		Q126T (2-4 IL-2 with a Q126T point mutation) (ligand) APTSSSTKKTQLQLEHLLLDLQMILNGISNHKNPRLARMLTFKFYMPEKATELKHLQCLEEELKPLEEALRLAPSKNFHLRPRDLISDVNVIVLELKGSETTFMCEYADETATIVEFLNRWITFCTSIISTLT
		2 nM	Q126T/V91R double mutant (ligand) APTSSSTKKTQLQLEHLLLDLQMILNGISNHKNPRLARMLTFKFYMPEKATELKHLQCLEEELKPLEEALRLAPSKNFHLRPRDLISDVNRIVLELKGSETTFMCEYADETATIVEFLNRWITFCTSIISTLT
